The values that follow come from US7495068B2, “Antiangiogenic peptides, polypeptides encoding same and methods for inhibiting angiogenesis” (Abbott Laboratories, priority 1996, dated 2009).

Assay [1] concerns BCE Cells. In words: Endothelial proliferation assay (bFGF-stimulated). In kind it is cell-based, bovine. The procedure: The in vitro proliferation of endothelial cells was determined as described by Lingen, et al., in Laboratory Investigation, 74: 476-483 (1996), which is hereby incorporated herein by reference, using the Cell Titer 96 Aqueous Non-Radioactive Cell Proliferation Assay kit (Promega® Corporation, Madison, Wis.). Bovine capillary (adrenal) endothelial cells were plated at a density of 1000 cells per well in a 96-well plate in Dulbecco's Modified Eagle Medium (DMEM) containing 10% donor calf serum and 1% BSA (bovine serum albumin, GIBCO® BRL, Gaithersburg, Md.). After 8 hours, the cells were starved overnight in DMEM containing 0.1% BSA then re-fed with media containing specified concentrations of inhibitor and 5 ng/mL bFGF (basic fibroblast growth factor). The results of the assay were corrected both for unstimulated cells (i.e. no bFGF added) as the baseline and for cells stimulated with bFGF alone (i.e. no inhibitor added) as the maximal proliferation. When multiple experiments were combined, the results were represented as the percent change in cell number as compared to bFGF alone.
The effect of kringle 5 peptide fragments on endothelial cell proliferation was determined in vitro using the above described endothelial cell proliferation assay. […]

For assay [2], the system named is BCE Cells. To be noted: rows marked *: data taken from Marti et al. 1994; cited from earlier work.

B1: kringle 5 (Val^443-Ala^543): kringle 5 peptide fragment, amino acid positions 443-543 of human plasminogen (SEQ ID NO:1) (protein, listed as Homo sapiens)
chain: VAPPPVVLLPDVETPSEEDCMFGNGKGYRGKRATTVTGTPCQDWAAQEPHRHSIFTPETNPRAGLEKNYCRNPDGDVGGPWCYTTNPRKLYDYCDVPQCAA
In the case of B1, the “fold increase in activity at inhibiting BCE cell proliferation compared to kringle 1-4 peptide fragments” value in the assay with BCE Cells [1] (vs kringle 1-4 peptide fragments) is listed as about 800 fold. In addition, the “fold increase in activity at inhibiting BCE cell proliferation compared to kringle 5 fragment 443-546 of SEQ ID NO:1” value in the assay on BCE Cells [1] (vs kringle 5 (443-546)) was about 300 fold.

B2: kringle 4 (Val^354-Val^443): kringle 4 fragment of plasminogen, SEQ ID NO:1 (protein, listed as Homo sapiens)
chain: VVQDCYHGDGQSYRGTSSTTTTGKKCQSWSSMTPHRHQKTPENYPNAGLTMNYCRNPDADKGPWCFTTDPSVRWEYCNLKKCSGTEASVV
Turning to B2, the “Antiproliferative Activity of BCE Cells (ED50)” value in the assay with BCE Cells [2] is “no activity”.

B3: kringle 2 (Glu^161-Thr^245): kringle 2 fragment of plasminogen, SEQ ID NO:1 (protein, listed as Homo sapiens)
chain: ECEEECMHCSGENYDGKISKTMSGLECQAWDSQSPHAHGYIPSKFPNKNLKKNYCRNPDRELRPWCFTTDPNKRWELCDIPRCTT
For the molecule B3, the “Antiproliferative Activity of BCE Cells (ED50)” value in the assay on BCE Cells [2] is given as “no activity”.
